This is an account of results in the supplement of paper PMC9112550, “Optimization of the antimicrobial peptide Bac7 by deep mutational scanning” (BMC Biology, 2022).

The data set concerns Escherichia coli TOP10. Briefly: shrunken log2 fold change of peptide-encoding DNA abundance (4.5 h post-induction vs induction); higher = less antimicrobial activity (less host growth inhibition). The note with it: time post-induction: 4.5 h; library: site-saturation at positions 5, 18, 19, 20.
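Also: peptides expressed intracellularly from a pBAD plasmid library in pooled LB shake-flask culture, induced with 0.3% L-arabinose, DNA abundance read by NGS, three biological replicates, DESeq2 with apeglm shrinkage.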

As for RRIRFRPPRLPRPRPRPAALPRP, the “shrunken log2 fold change” value was -0.0867.

Turning to RRIRPRPPRLPRPRPRPAPGPRP, the “shrunken log2 fold change” value amounted to 0.645.

In the case of RRIRYRPPRLPRPRPRPYNWPRP, the “shrunken log2 fold change” value was -0.593.

In the case of RRIRCRPPRLPRPRPRPEWNPRP, the “shrunken log2 fold change” value came out at 0.202.

Turning to RRIRLRPPRLPRPRPRPTSVPRP, the “shrunken log2 fold change” value is -0.0387.

Turning to RRIRGRPPRLPRPRPRPSKSPRP, the “shrunken log2 fold change” value was -0.0596.

On to RRIRKRPPRLPRPRPRPSINPRP, for which the “shrunken log2 fold change” value worked out at 0.0278.

As to RRIRKRPPRLPRPRPRPDVEPRP, the “shrunken log2 fold change” value was 0.962.

As for RRIRARPPRLPRPRPRPCCHPRP, the “shrunken log2 fold change” value is -0.454.

As for RRIRRRPPRLPRPRPRPYERPRP, the “shrunken log2 fold change” value is -0.18.

On to RRIRMRPPRLPRPRPRPFMGPRP, for which the “shrunken log2 fold change” value is -0.0409.

On to RRIRMRPPRLPRPRPRPTIFPRP, for which the “shrunken log2 fold change” value is -0.0388.

In the case of RRIRPRPPRLPRPRPRPIKNPRP, the “shrunken log2 fold change” value was -0.219.

As for RRIRQRPPRLPRPRPRPEPGPRP, the “shrunken log2 fold change” value came out at 0.485.

In the case of RRIRFRPPRLPRPRPRPIDMPRP, the “shrunken log2 fold change” value was -0.727.

For the sequence RRIRERPPRLPRPRPRPYHMPRP, the “shrunken log2 fold change” value was -0.021.

As to RRIRSRPPRLPRPRPRPDIFPRP, the “shrunken log2 fold change” value was -0.135.

On to RRIRTRPPRLPRPRPRPVQTPRP, for which the “shrunken log2 fold change” value stood at 0.216.

On to RRIRRRPPRLPRPRPRPTQLPRP, for which the “shrunken log2 fold change” value is 0.628.

Consider RRIRVRPPRLPRPRPRPKDRPRP, for which the “shrunken log2 fold change” value was -0.0469.

With RRIRCRPPRLPRPRPRPAQPPRP, the “shrunken log2 fold change” value is 0.366.

For RRIRERPPRLPRPRPRPCIPPRP, the “shrunken log2 fold change” value is -0.109.

For the sequence RRIRQRPPRLPRPRPRPQEEPRP, the “shrunken log2 fold change” value was -0.0176.

With RRIRGRPPRLPRPRPRPSDDPRP, the “shrunken log2 fold change” value stood at 0.108.

Take RRIRSRPPRLPRPRPRPCNPPRP: the “shrunken log2 fold change” value is -0.212.

In the case of RRIRDRPPRLPRPRPRPRRWPRP, the “shrunken log2 fold change” value was determined as 0.453.

As for RRIRYRPPRLPRPRPRPGLSPRP, the “shrunken log2 fold change” value is -0.439.

As for RRIRPRPPRLPRPRPRPQHDPRP, the “shrunken log2 fold change” value is -0.176.

On to RRIRARPPRLPRPRPRPEHYPRP, for which the “shrunken log2 fold change” value stood at 0.068.

With RRIRVRPPRLPRPRPRPAAEPRP, the “shrunken log2 fold change” value was 0.109.

With RRIRQRPPRLPRPRPRPCACPRP, the “shrunken log2 fold change” value amounted to 0.0128.

Consider RRIRIRPPRLPRPRPRPMHTPRP, for which the “shrunken log2 fold change” value was 0.0542.

Consider RRIRARPPRLPRPRPRPGDNPRP, for which the “shrunken log2 fold change” value stood at 0.133.

With RRIRNRPPRLPRPRPRPTTTPRP, the “shrunken log2 fold change” value is 0.082.

In the case of RRIRQRPPRLPRPRPRPCALPRP, the “shrunken log2 fold change” value was determined as 0.0342.

For the sequence RRIRTRPPRLPRPRPRPHSCPRP, the “shrunken log2 fold change” value was -0.0159.

For the sequence RRIRFRPPRLPRPRPRPEPSPRP, the “shrunken log2 fold change” value turned out to be 0.378.

In the case of RRIRMRPPRLPRPRPRPQYNPRP, the “shrunken log2 fold change” value is -0.934.

Regarding RRIRQRPPRLPRPRPRPQMDPRP, the “shrunken log2 fold change” value was -0.0516.

As to RRIRVRPPRLPRPRPRPNCWPRP, the “shrunken log2 fold change” value worked out at 0.0329.

Take RRIRHRPPRLPRPRPRPIGTPRP: the “shrunken log2 fold change” value was -0.0693.

For RRIRDRPPRLPRPRPRPCKTPRP, the “shrunken log2 fold change” value is -0.0377.

For RRIRRRPPRLPRPRPRPYNEPRP, the “shrunken log2 fold change” value is -0.103.

For RRIRLRPPRLPRPRPRPLDHPRP, the “shrunken log2 fold change” value was -0.1.

Take RRIRKRPPRLPRPRPRPFMMPRP: the “shrunken log2 fold change” value is -0.1.

As for RRIRQRPPRLPRPRPRPAFTPRP, the “shrunken log2 fold change” value is -0.00944.

In the case of RRIRHRPPRLPRPRPRPRATPRP, the “shrunken log2 fold change” value was found to be 0.554.

With RRIRMRPPRLPRPRPRPFGLPRP, the “shrunken log2 fold change” value is -0.0107.

Consider RRIRNRPPRLPRPRPRPVFMPRP, for which the “shrunken log2 fold change” value is -0.181.

As for RRIRGRPPRLPRPRPRPNFVPRP, the “shrunken log2 fold change” value was -0.0668.

In the case of RRIRVRPPRLPRPRPRPLQIPRP, the “shrunken log2 fold change” value is -0.0888.

As for RRIRERPPRLPRPRPRPNTNPRP, the “shrunken log2 fold change” value is -0.0492.

Consider RRIRHRPPRLPRPRPRPLPKPRP, for which the “shrunken log2 fold change” value was found to be 0.389.

RRIRARPPRLPRPRPRPDYVPRP: the “shrunken log2 fold change” value turned out to be 0.353.

For the sequence RRIRYRPPRLPRPRPRPNVHPRP, the “shrunken log2 fold change” value was -0.745.

With RRIRIRPPRLPRPRPRPCWNPRP, the “shrunken log2 fold change” value is -0.301.

For the sequence RRIRPRPPRLPRPRPRPVLVPRP, the “shrunken log2 fold change” value came out at 0.0376.

For RRIRMRPPRLPRPRPRPMAFPRP, the “shrunken log2 fold change” value amounted to 0.102.

On to RRIRKRPPRLPRPRPRPNGAPRP, for which the “shrunken log2 fold change” value is 0.168.

For the sequence RRIRKRPPRLPRPRPRPTVWPRP, the “shrunken log2 fold change” value was 0.548.

Regarding RRIRARPPRLPRPRPRPLLNPRP, the “shrunken log2 fold change” value was 0.373.

Regarding RRIRCRPPRLPRPRPRPLCCPRP, the “shrunken log2 fold change” value is -0.237.

Turning to RRIRRRPPRLPRPRPRPILHPRP, the “shrunken log2 fold change” value was -0.0819.

Take RRIRKRPPRLPRPRPRPWMKPRP: the “shrunken log2 fold change” value was -0.0454.

For RRIRRRPPRLPRPRPRPDVYPRP, the “shrunken log2 fold change” value is -0.0445.

As to RRIRHRPPRLPRPRPRPTVKPRP, the “shrunken log2 fold change” value is -0.255.

For the sequence RRIRLRPPRLPRPRPRPWFFPRP, the “shrunken log2 fold change” value is -0.155.

Consider RRIRRRPPRLPRPRPRPKKFPRP, for which the “shrunken log2 fold change” value was -0.205.

For RRIRIRPPRLPRPRPRPAGDPRP, the “shrunken log2 fold change” value came to 0.0386.

For the sequence RRIRTRPPRLPRPRPRPEILPRP, the “shrunken log2 fold change” value amounted to 0.0249.

Regarding RRIRGRPPRLPRPRPRPVPMPRP, the “shrunken log2 fold change” value stood at 1.17.

As for RRIRSRPPRLPRPRPRPYYCPRP, the “shrunken log2 fold change” value came to 2.2.

For the sequence RRIRYRPPRLPRPRPRPFTKPRP, the “shrunken log2 fold change” value is -0.184.

In the case of RRIRPRPPRLPRPRPRPDCDPRP, the “shrunken log2 fold change” value turned out to be 0.0888.

With RRIRQRPPRLPRPRPRPGYKPRP, the “shrunken log2 fold change” value was -0.0992.

As to RRIRCRPPRLPRPRPRPHSNPRP, the “shrunken log2 fold change” value is -0.625.

For RRIRSRPPRLPRPRPRPMAHPRP, the “shrunken log2 fold change” value came to 0.218.

On to RRIRQRPPRLPRPRPRPRMVPRP, for which the “shrunken log2 fold change” value was determined as 0.166.

RRIRDRPPRLPRPRPRPENWPRP: the “shrunken log2 fold change” value turned out to be 0.695.

With RRIRARPPRLPRPRPRPLCYPRP, the “shrunken log2 fold change” value is -0.0201.

As to RRIRLRPPRLPRPRPRPRRLPRP, the “shrunken log2 fold change” value was 0.18.

For the sequence RRIRIRPPRLPRPRPRPINIPRP, the “shrunken log2 fold change” value was -1.41.

Regarding RRIRYRPPRLPRPRPRPVRNPRP, the “shrunken log2 fold change” value is -0.161.

Consider RRIRERPPRLPRPRPRPDITPRP, for which the “shrunken log2 fold change” value was found to be 3.39.

With RRIRFRPPRLPRPRPRPYKAPRP, the “shrunken log2 fold change” value was -0.153.

As for RRIRSRPPRLPRPRPRPPVAPRP, the “shrunken log2 fold change” value was 0.403.

Consider RRIRSRPPRLPRPRPRPGPIPRP, for which the “shrunken log2 fold change” value was 0.298.

For RRIRGRPPRLPRPRPRPKDFPRP, the “shrunken log2 fold change” value is -0.0214.

On to RRIRYRPPRLPRPRPRPATNPRP, for which the “shrunken log2 fold change” value was -0.387.

In the case of RRIRIRPPRLPRPRPRPPGVPRP, the “shrunken log2 fold change” value came out at 0.408.

Regarding RRIRWRPPRLPRPRPRPFCFPRP, the “shrunken log2 fold change” value is 0.449.
